Assay results published in IntAct's records for PubMed 18342605.

How the values were obtained:
pp12_yeast GLC7 = pp12_yeast GLC7 (UniProt P32598)
nab3_yeast NAB3 = nab3_yeast NAB3 (UniProt P38996)
Sequence of UniProt P38996 (P38996 whole entry): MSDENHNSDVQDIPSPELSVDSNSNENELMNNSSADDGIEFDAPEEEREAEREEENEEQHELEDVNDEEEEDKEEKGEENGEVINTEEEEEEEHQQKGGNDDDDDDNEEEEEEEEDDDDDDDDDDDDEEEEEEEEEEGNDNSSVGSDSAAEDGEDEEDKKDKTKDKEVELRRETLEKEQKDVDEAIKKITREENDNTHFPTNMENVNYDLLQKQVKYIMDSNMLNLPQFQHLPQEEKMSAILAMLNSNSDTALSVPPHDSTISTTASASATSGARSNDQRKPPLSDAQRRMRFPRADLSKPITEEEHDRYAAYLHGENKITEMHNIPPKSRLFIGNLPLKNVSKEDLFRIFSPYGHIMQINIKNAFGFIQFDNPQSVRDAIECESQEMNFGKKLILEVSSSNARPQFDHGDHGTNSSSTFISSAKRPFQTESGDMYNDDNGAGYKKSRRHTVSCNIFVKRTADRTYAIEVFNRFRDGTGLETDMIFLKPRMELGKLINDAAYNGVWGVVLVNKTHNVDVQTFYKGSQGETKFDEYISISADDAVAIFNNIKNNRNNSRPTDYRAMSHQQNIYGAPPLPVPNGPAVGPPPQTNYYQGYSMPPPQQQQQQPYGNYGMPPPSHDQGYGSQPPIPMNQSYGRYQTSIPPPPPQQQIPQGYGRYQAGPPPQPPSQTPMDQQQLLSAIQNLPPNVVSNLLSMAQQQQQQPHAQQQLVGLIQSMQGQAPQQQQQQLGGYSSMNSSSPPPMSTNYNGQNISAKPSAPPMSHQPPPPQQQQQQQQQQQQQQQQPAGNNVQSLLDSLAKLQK

Sequence of UniProt P32598 (P32598 whole entry): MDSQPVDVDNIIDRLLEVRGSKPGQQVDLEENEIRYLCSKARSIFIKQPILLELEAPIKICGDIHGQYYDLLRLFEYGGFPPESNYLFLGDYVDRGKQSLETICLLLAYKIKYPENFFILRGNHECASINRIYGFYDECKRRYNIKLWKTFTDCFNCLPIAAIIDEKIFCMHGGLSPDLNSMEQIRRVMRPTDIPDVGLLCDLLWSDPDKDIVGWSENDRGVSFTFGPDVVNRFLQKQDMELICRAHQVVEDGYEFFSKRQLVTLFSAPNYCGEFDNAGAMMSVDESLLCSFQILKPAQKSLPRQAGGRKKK

Substance	effect of a mutation on the interaction (pp12_yeast GLC7)	effect of a mutation on the interaction (nab3_yeast NAB3)
Helicase SEN1 (Saccharomyces cerevisiae), Q00416 F2003A	disrupting interaction strength	with no effect
Helicase SEN1 (Saccharomyces cerevisiae), Q00416 K1999A	with no effect	with no effect
